Data reported in publication PMC4938712 (Structure (London, England : 1993), 2016).

Assays:
[1] = target: HIV-1 Rev L64A (HIV-1) (UniProt P04618)
[2] = target: HIV-1 Rev P31A (HIV-1) (UniProt P04618); assay: AUC
[3] = target: T1, HIV-1 Rev, wild type (HIV-1), P04618; assay: AUC; details: remark: other sources report otherwise
T1 chain: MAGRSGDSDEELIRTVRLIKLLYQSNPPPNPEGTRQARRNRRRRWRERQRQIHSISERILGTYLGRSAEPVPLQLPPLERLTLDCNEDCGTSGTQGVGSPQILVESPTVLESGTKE

[4] = target: HIV-1 Rev, wild type (HIV-1, UniProt P04618); assay: crystal structure

With “HIV-1 Rev L64A (from UniProt P04618 1-116) (natural protein)” the stoichiometry N [1] was 2.

Molecule “HIV-1 Rev P31A (from UniProt P04618 1-116) (natural protein)” has a stoichiometry N [2] of 4.

B1: HIV-1 Rev, wild type, P04618 1-116 (natural protein)
chain: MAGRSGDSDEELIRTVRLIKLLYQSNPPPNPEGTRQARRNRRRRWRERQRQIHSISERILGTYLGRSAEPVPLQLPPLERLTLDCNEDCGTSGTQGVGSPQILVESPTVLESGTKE
For B1, the stoichiometry N [3] was 4.

B2: anti-Rev single-chain antibody variable fragment (scFv) (scFv, V domains shown)
VH: QEQLVESGGRLVTPGTALTLTCKVSGFSLSGFWLNWVRQAPGKGLEWVGAIYRGSGSEWYASWAKGRFTISDTSTTVTLKLTSPTTEDTATYFCAADTTDNGYFTIWGPGTLVTVSS
VL: ELVMTQTPSSVSEPVGGTVTIKCQASQSISSWLSWYQQKPGQPPKLLIYDASNLASGVPSRFMGSGSGTEYTLTISGVQREDAATYYCLGGYPAASYRTAFGGGTELEII
B2: binds [4].
